Measured values: patent US20250346673A1 (DUALITY BIOLOGICS SUZHOU, published 2025)
Where a chain is given by its changes, count along the chain named. Values belong to the binder of their own block, whether it stands above or below them.

Columns and labels:
[1] = biological target: T1, cynomolgus BDCA2 (cynomolgus monkey, UniProt A0A2K5UWP4 1-212); assay: FACS on 293F-cynoBDCA2 cells; EC50 table under the plot, unit from the x axis (nM)
T1 construct: whole, on cells; also called Cyno BDCA2; cynoBDCA2
T1 sequence: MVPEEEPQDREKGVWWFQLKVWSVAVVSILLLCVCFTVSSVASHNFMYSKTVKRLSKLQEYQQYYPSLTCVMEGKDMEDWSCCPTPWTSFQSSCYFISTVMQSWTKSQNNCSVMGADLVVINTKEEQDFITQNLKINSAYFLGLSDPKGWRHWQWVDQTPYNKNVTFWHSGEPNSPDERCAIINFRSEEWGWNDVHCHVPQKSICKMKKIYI
Procedure: (§1) The cells were recovered and resuspended to 2×10⁶/mL with FACS buffer (PBS+2% FBS). The cells were added to 3799 cell plates (Corning) at 100 μL/well, and the supernatant was discarded after centrifugation at 300 g. The antibodies were serially diluted with FACS buffer (Id.), the diluted antibodies were added to centrifuged cells and the cells were resuspended. The cells were incubated at 4° C. for 1 h. The incubated cells were then centrifuged at […] for 5 min and washed twice with FACS buffer. 100 μL Donkey anti-Mouse IgG (H+L) Highly Cross-Adsorbed Secondary Antibody-Alexa Fluor 488 (Invitrogen, A21202; 1:1000) secondary antibody was added to the cells, which were washed twice with FACS buffer after incubation at 4° C. for 1 h, resuspended with PBS, analyzed with FACS (BD FACS CantoTM II) instrument. The curve was fitted with GraphPad Prism6, and EC₅₀ values were calculated.

[2] = biological target: T2, human BDCA2 (human, UniProt Q8WTT0 1-213); assay: FACS on CHOK1-hBDCA2 cells; EC50 table under the plot, unit from the x axis (nM)
T2 construct: whole, on cells; also called hBDCA2; Blood dendritic cell antigen 2
T2 sequence (looked up): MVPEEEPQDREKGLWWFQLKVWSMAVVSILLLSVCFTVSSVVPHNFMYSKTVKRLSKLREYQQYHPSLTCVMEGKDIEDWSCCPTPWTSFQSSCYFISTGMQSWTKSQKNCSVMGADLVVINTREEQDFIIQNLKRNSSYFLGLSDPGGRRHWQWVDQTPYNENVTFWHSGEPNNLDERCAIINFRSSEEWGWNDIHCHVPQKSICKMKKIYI
Procedure: as §1

[3] = biological target: T2, human BDCA2; assay: cell-based or functional assay
[4] = biological target: T1, cynomolgus BDCA2; assay: FACS on 293F-cynoBDCA2 cells; EC50 table under the plot, unit from the x axis (nM) [continued) d.]
Procedure: as §1

[5] = biological target: T3, Human BDCA2 Fc recombinant protein (human); assay: ELISA, coated humanBDCA2 Fc
T3 construct: Human IgG1 Fc N-terminal of the BDCA2 extracellular domain (Asn45-Ile213), fused by a linker; also called BDCA2-Fc protein
Procedure: HumanBDCA2 Fc protein or cynoBDCA2 His protein was diluted with PBS to 1 μg/mL and added to ELISA microplates at 100 μL/well and incubated at 4° C. overnight. The plates were blocked with ELISA blocking solution (PBS phosphate buffer with 1% BSA, pH 7.4, the percentages representing mass percentages) at 37° C. for 2 hours. Sequential 10-fold serial dilutions of antibodies were added at 8 concentrations (0.0001 nM-100 nM, including 0 point control) in total at 100 μL/well. The plates were incubated at 37° C. for 1 hour, then washed 3 times and after anti-mouse IgG (Fab specific)-HRP (Sigma, A3682; 1: 5000 dilution) secondary antibodies were added at 100 μL/well, were incubated at 37° C. for 1 h. The plates were washed 3 times, TMB development fluid (EL0009, Huzhou Ying Chuang Biotechnology) was added at 100 μL/well and 50 μL 1N hydrochloric acid was added after incubation at 37° C. for 10 min to stop the development reaction. OD450 nm values were read with ELISA plate reader and the curve was fitted with GraphPad Prism6, and EC₅₀ values were calculated.

[6] = biological target: T2, human BDCA2; assay: FACS on CHOK1-hBDCA2 cells; EC50 table under the plot, unit from the x axis (nM) [continued) d.]
Procedure: as §1

[7] = biological target: T4, human FcγRIIA (H167) (human, UniProt P12318 36-218, limits assumed, biotinylated (site not stated)); assay: SPR, FcγRIIA (H167); against the wild-type Fc antibody Hu033-03
T4 construct: also called Fey RIIA (H167)
T4 sequence (looked up): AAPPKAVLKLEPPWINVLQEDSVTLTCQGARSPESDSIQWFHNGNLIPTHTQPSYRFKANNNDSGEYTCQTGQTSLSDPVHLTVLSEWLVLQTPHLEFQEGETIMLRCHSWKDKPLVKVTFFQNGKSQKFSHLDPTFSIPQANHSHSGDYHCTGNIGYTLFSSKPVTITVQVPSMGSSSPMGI
Procedure: (§2) Antibody kinetics or affinity parameters were measured using BIAcore 8K and freshly fixed biotinylated human Fe γ RIIA(R167)/Fc γ RIIA (H167) SA chips. The experiment was run at 25° C. with a running buffer of 1×HBS-EP+(10 mM HEPES pH 7.4, 150 mM NaCl, 3 mM EDTA, 0.05% Surfactant P20). […] The binding and dissociation times of the antibody were 60 and 90 seconds, respectively. Two zero concentration samples are used to remove background signals. The sample was injected in a multi cycle manner, the analyte can be fully dissociated from the chip surface at the end of each cycle, and no regeneration step was applied. Data analysis was perform using Biacore Insight Evaluation Software (Version 2.0.15.12933). After deducting the reference channel (flow cell 1) and two zero concentration signals, affinity analysis was performed using a 1:1 binding model or steady-state model for curve fitting and calculation of kinetic parameters.

[8] = biological target: T4, human FcγRIIA (H167); assay: SPR (BIAcore 8K), biotinylated FcγRIIA (H167) on SA chip, antibody as analyte, 1:1 binding
Procedure: as §2

[9] = biological target: T5, human FcγRIIA (R167) (human, UniProt P12318 36-218, limits assumed, biotinylated (site not stated)); assay: SPR (BIAcore 8K), biotinylated FcγRIIA (R167) on SA chip, antibody as analyte, 1:1 binding
T5 construct: also called Fe γ RIIA(R167); Fcγ RIJA (R167)
T5 sequence (looked up): T4 sequence (looked up) with H132R
Procedure: as §2

[10] = biological target: T5, human FcγRIIA (R167); assay: SPR, FcγRIIA (R167); against the wild-type Fc antibody Hu033-03
Procedure: as §2

B1: mAb001 (antibody, V domains shown)
VH: QIQLVQSGPELKKPGETVKISCKASGYTFTDFSMHWVKQAPGKGLKWMGWINTETGEPTYADDFKGRFAFSLETSASTAFLQINNLKNDDTTTYFCSRGGDGHPYWYFAVWGAGTTVTVSS
VL: DIVLTQSPASLAVSLGQRATISCRASQSVSTSSYSYMHWYQQKPGQPPKLLIKYASILESGVPARFSGSGSGTDFTLNIHPVEEEDTATYYCQHSWEIPFTFGSGTKLEIK
notes: Mouse hybridoma antibody
EC50 [1]: 6.08 nM | EC50 [2]: 1.37 nM

B7: Hu033-03-T1 (antibody, human IgG1, kappa)
heavy: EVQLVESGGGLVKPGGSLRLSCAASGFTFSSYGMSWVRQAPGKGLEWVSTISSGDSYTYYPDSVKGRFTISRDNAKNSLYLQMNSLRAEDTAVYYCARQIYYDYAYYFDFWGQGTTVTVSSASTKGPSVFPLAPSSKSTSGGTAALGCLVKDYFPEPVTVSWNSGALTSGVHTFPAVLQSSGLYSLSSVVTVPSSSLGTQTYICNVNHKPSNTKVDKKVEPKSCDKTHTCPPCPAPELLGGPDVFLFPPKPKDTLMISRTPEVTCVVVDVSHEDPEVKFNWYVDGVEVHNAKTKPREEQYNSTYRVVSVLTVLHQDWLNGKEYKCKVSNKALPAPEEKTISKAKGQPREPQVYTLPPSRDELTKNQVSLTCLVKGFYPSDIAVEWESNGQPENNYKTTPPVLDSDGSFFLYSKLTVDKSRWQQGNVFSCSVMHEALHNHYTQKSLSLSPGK
light: DIVLTQSPASLAVSPGQRATITCRASESVSFRTSHLMHWYQQKPGQPPKLLIYGASNLESGVPARFSGSGSETDFTLTINPVEAEDTANYFCQQSIEDPPTFGGGTKVEIKRTVAAPSVFIFPPSDEQLKSGTASVVCLLNNFYPREAKVQWKVDNALQSGNSQESVTEQDSKDSTYSLSSTLTLSKADYEKHKVYACEVTHQGLSSPVTKSFNRGEC
notes: Fc-mutated Hu033-03 (IgG1)
Multiple of affinity [7]: 2.3 fold | Kd [8]: 490 nM | koff [8]: 0.23 s⁻¹ | kon [8]: 470000 M⁻¹ s⁻¹ | Kd [9]: 310 nM | koff [9]: 0.232 s⁻¹ | kon [9]: 750000 M⁻¹ s⁻¹ | Multiple of affinity [10]: 4 fold

B8: Hu033-03-T2 (antibody, human IgG1, kappa)
heavy: EVQLVESGGGLVKPGGSLRLSCAASGFTFSSYGMSWVRQAPGKGLEWVSTISSGDSYTYYPDSVKGRFTISRDNAKNSLYLQMNSLRAEDTAVYYCARQIYYDYAYYFDFWGQGTTVTVSSASTKGPSVFPLAPSSKSTSGGTAALGCLVKDYFPEPVTVSWNSGALTSGVHTFPAVLQSSGLYSLSSVVTVPSSSLGTQTYICNVNHKPSNTKVDKKVEPKSCDKTHTCPPCPAPELLAGPDVFLFPPKPKDTLMISRTPEVTCVVVDVSHEDPEVKFNWYVDGVEVHNAKTKPREEQYNSTYRVVSVLTVLHQDWLNGKEYKCKVSNKALPAPEEKTISKAKGQPREPQVYTLPPSRDELTKNQVSLTCLVKGFYPSDIAVEWESNGQPENNYKTTPPVLDSDGSFFLYSKLTVDKSRWQQGNVFSCSVMHEALHNHYTQKSLSLSPGK
light: B7 light
notes: Fc-mutated Hu033-03 (IgG1)
Multiple of affinity [7]: 10 fold | Kd [8]: 103 nM | koff [8]: 0.0585 s⁻¹ | kon [8]: 570000 M⁻¹ s⁻¹ | Kd [9]: 45.8 nM | koff [9]: 0.0899 s⁻¹ | kon [9]: 1.96e+06 M⁻¹ s⁻¹ | Multiple of affinity [10]: 13.7 fold

B9: Hu033-03-T3 (antibody, human IgG1, kappa)
heavy: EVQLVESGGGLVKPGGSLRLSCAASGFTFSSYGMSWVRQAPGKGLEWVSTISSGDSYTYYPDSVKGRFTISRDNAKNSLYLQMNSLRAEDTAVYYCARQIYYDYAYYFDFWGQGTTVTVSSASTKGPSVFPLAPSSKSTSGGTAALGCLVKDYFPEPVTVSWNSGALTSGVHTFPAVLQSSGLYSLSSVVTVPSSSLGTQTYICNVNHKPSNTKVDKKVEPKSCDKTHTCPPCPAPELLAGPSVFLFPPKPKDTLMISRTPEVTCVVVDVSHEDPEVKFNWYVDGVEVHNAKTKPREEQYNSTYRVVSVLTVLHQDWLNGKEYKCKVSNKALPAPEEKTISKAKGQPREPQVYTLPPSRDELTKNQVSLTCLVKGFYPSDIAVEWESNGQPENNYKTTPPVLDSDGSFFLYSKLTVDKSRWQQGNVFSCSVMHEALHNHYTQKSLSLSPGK
light: B7 light
notes: Fc-mutated Hu033-03 (IgG1)
Multiple of affinity [7]: 7.3 fold | Kd [8]: 162 nM | koff [8]: 0.0894 s⁻¹ | kon [8]: 551000 M⁻¹ s⁻¹ | Kd [9]: 303 nM | koff [9]: 0.225 s⁻¹ | kon [9]: 741000 M⁻¹ s⁻¹ | Multiple of affinity [10]: 4.4 fold

Second part, the binder after the results:

EC50 [1]: 7.05 nM | EC50 [2]: 1.89 nM
B2: mAb002 (antibody, V domains shown)
VH: QIQLVQSGPELKKPGETVKISCRASGYSFTDYSMHWVKQAPGKGLKWVGWINTETGEPTYADDFKGRFALSLETSATSAYLQINNLKNEDTATYFCARGGDGFPYWYFNVWGAGTTVTVSS
VL: B1 VL with A9T, A19T, T20N, Y34N, M37I, I57N, E59D, A88S
notes: Mouse hybridoma antibody

EC50 [1]: 2.11 nM | EC50 [2]: 1.83 nM | IC50 for inhibiting cytokine IFNα release, CpG-A stimulated human PBMC [3]: 0.0867 nM
B3: mAb005 (antibody, V domains shown)
VH: QVQLKQSGPGLVQPSQSLSITCTVSGFSLTNYGVHWVRQSPGKGLEWLGVIWSGESTDYDAAFISRLSISKDNSKSQVFFKMNSLQADDSAIYYCARRRSHYYGYVMDYWGQGTSVTVSS
VL: DIVLTQSPASLAVSLGQRATISCKASQSIDYDGIGYLNWYQHKPGQPPKLLIYAASNLESGIPARFSGSGSGTDFTLNIHPVEEEDAATYYCQQSNEDPPTFGSGTKLEIK
notes: Mouse hybridoma antibody

EC50 [4]: 0.28 nM | EC50 [5]: < 0.3 nM | EC50 [6]: 0.251 nM
B4: mAb028 (antibody, V domains shown)
VH: DVQLQESGPGLVKPSQSLSLTCSVTGYSISSGYYWNWIRQFPGNKLECMGYISYDGSNYYNPSLKNRISITRDTSKNQFFLSLNSVTTEDTATYFCVRGGDYDDGGFAYWGQGTLVTVSA
VL: DIQMTQSPASLSASVGETVTITCRASGNIHNYLAWYQQKQGKSPQLLVYNAKTLADGVPSRFSGSGSETQYSLKINSLQPEDFGNYFCQHFWIIPYTFGGGTKLEIK
notes: Mouse hybridoma antibody

EC50 [4]: 0.359 nM | EC50 [5]: < 0.3 nM | EC50 [6]: 0.225 nM
B5: mAb032 (antibody, V domains shown)
VH: B4 VH with S30T
VL: B4 VL
notes: Mouse hybridoma antibody

EC50 [4]: 2.49 nM | EC50 [5]: < 0.3 nM | EC50 [6]: 0.773 nM
B6: mAb026 (antibody, V domains shown)
VH: DVQLQESGPGLVKPSQSLSLTCSVTGYSITSAYYWNWIRQFPGHKLEWMGYISYDGSNNYNPSLKNRISITRDTSKNQFFLKLNSVTTEDTATYHCARGVDYPNAIDWWGQGTSLTVSS
VL: DIVLTQSPTSLTVSLGQRATISCRASESVSIHGTHLMHWYQQKPGQPPKLLIYVASYLESGVPARFSGSGSETDFSLNIHPVEEEDAATYFCQQSFEDPWTFGGGTKLEIK
notes: Mouse hybridoma antibody
